Test [1] deals with human Y2 receptor (human) (UniProt P49146). Put plainly: cell-based or functional assay.
Test [2] shares this target. Put plainly: RBA: [125I]-PYY displacement, hY2R/CHO membranes.

Among the data in patent publication US20120172293A1 (Takeda / Millennium, published 2012) are GBA EC50 Ratio (vs PYY(3-36)), [35S]GTPγS and IC50 Ratio (vs PYY(3-36)) values, retold here.

Non-standard residues stand in square brackets, D forms with d. *: point of attachment. Lys(Me2) = CN(C)CCCC[C@H](N)C(=O)O; tBuAla = CC(C)(C)C[C@H](N)C(=O)O; 4Pal = N[C@@H](Cc1ccncc1)C(=O)O; Cha = N[C@@H](CC1CCCCC1)C(=O)O; Cit = NC(=O)NCCC[C@H](N)C(=O)O; d(αMeP) = C[C@]1(C(=O)O)CCCN1; αMeP = C[C@@]1(C(=O)O)CCCN1; Isobutyryl = CC(C)C(=O)*; Orn = NCCC[C@H](N)C(=O)O; Dab = NCC[C@H](N)C(=O)O; dAze = O=C(O)[C@H]1CCN1; Aib = CC(C)(N)C(=O)O; GABA = NCCCC(=O)O

Chain of human Y2 receptor (human) (P49146 whole entry): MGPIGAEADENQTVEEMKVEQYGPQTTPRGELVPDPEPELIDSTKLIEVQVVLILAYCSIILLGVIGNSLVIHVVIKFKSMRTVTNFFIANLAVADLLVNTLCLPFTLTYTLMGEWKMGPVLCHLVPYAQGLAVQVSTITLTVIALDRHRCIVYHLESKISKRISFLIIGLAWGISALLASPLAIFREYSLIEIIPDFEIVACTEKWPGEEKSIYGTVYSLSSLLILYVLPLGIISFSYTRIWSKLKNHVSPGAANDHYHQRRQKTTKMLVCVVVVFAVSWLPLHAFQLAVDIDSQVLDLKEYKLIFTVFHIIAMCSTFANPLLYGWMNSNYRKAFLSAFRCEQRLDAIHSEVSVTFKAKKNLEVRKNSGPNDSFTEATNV

B1: Ac-[D-Pro24, Cha27,28,36, Dab30, Aib31]-PYY(23-36) (peptide)
peptide: Ac-S[dP]RH[Cha][Cha]N[Dab][Aib]TRQR[Cha]-NH2
SMILES: CC(=O)N[C@@H](CO)C(=O)N1CCC[C@@H]1C(=O)N[C@@H](CCCNC(=N)N)C(=O)N[C@@H](Cc1c[nH]cn1)C(=O)N[C@@H](CC1CCCCC1)C(=O)N[C@@H](CC1CCCCC1)C(=O)N[C@@H](CC(N)=O)C(=O)N[C@@H](CCN)C(=O)NC(C)(C)C(=O)N[C@H](C(=O)N[C@@H](CCCNC(=N)N)C(=O)N[C@@H](CCC(N)=O)C(=O)N[C@@H](CCCNC(=N)N)C(=O)N[C@@H](CC1CCCCC1)C(N)=O)[C@@H](C)O
Turning to B1, the GBA EC50 Ratio (vs PYY(3-36)), [35S]GTPγS in test [1] was 1.6. Moreover, the IC50 Ratio (vs PYY(3-36)) in test [2] was 2.6.

B2: Ac-[Glu23, D-Pro24, Pya(4)26, Cha27,36, Leu(Me)28, Lys30, Aib31]-PYY(23-36) (peptide)
peptide: Ac-E[dP]R[4Pal][Cha][tBuAla]NK[Aib]TRQR[Cha]-NH2
SMILES: CC(=O)N[C@@H](CCC(=O)O)C(=O)N1CCC[C@@H]1C(=O)N[C@@H](CCCNC(=N)N)C(=O)N[C@@H](Cc1ccncc1)C(=O)N[C@@H](CC1CCCCC1)C(=O)N[C@@H](CC(C)(C)C)C(=O)N[C@@H](CC(N)=O)C(=O)N[C@@H](CCCCN)C(=O)NC(C)(C)C(=O)N[C@H](C(=O)N[C@@H](CCCNC(=N)N)C(=O)N[C@@H](CCC(N)=O)C(=O)N[C@@H](CCCNC(=N)N)C(=O)N[C@@H](CC1CCCCC1)C(N)=O)[C@@H](C)O
With B2, the GBA EC50 Ratio (vs PYY(3-36)), [35S]GTPγS in test [1] came out at 0.86. Besides, the IC50 Ratio (vs PYY(3-36)) in test [2] is 0.48.

B3: Ac-[D-Pro24, Orn26, Cha27,28,36, Aib31]-PYY(23-36) (peptide)
peptide: Ac-S[dP]R[Orn][Cha][Cha]NL[Aib]TRQR[Cha]-NH2
SMILES: CC(=O)N[C@@H](CO)C(=O)N1CCC[C@@H]1C(=O)N[C@@H](CCCNC(=N)N)C(=O)N[C@@H](CCCN)C(=O)N[C@@H](CC1CCCCC1)C(=O)N[C@@H](CC1CCCCC1)C(=O)N[C@@H](CC(N)=O)C(=O)N[C@@H](CC(C)C)C(=O)NC(C)(C)C(=O)N[C@H](C(=O)N[C@@H](CCCNC(=N)N)C(=O)N[C@@H](CCC(N)=O)C(=O)N[C@@H](CCCNC(=N)N)C(=O)N[C@@H](CC1CCCCC1)C(N)=O)[C@@H](C)O
Consider B3, for which the GBA EC50 Ratio (vs PYY(3-36)), [35S]GTPγS in test [1] turned out to be 2.2. Also, the IC50 Ratio (vs PYY(3-36)) in test [2] amounted to 4.2.

B4: Ac-[D-αMePro24, Cha27,28,36, Aib31]-PYY(23-36) (peptide)
peptide: Ac-S[d(αMeP)]RH[Cha][Cha]NL[Aib]TRQR[Cha]-NH2
SMILES: CC(=O)N[C@@H](CO)C(=O)N1CCC[C@]1(C)C(=O)N[C@@H](CCCNC(=N)N)C(=O)N[C@@H](Cc1c[nH]cn1)C(=O)N[C@@H](CC1CCCCC1)C(=O)N[C@@H](CC1CCCCC1)C(=O)N[C@@H](CC(N)=O)C(=O)N[C@@H](CC(C)C)C(=O)NC(C)(C)C(=O)N[C@H](C(=O)N[C@@H](CCCNC(=N)N)C(=O)N[C@@H](CCC(N)=O)C(=O)N[C@@H](CCCNC(=N)N)C(=O)N[C@@H](CC1CCCCC1)C(N)=O)[C@@H](C)O
On to B4, for which the GBA EC50 Ratio (vs PYY(3-36)), [35S]GTPγS in test [1] amounted to 2.6. For the same molecule, the IC50 Ratio (vs PYY(3-36)) in test [2] was found to be 4.5.

B5: Ac-[D-Pro24, Cit26, Cha27,28,36, Aib31]-PYY(23-36) (peptide)
peptide: Ac-S[dP]R[Cit][Cha][Cha]NL[Aib]TRQR[Cha]-NH2
SMILES: CC(=O)N[C@@H](CO)C(=O)N1CCC[C@@H]1C(=O)N[C@@H](CCCNC(=N)N)C(=O)N[C@@H](CCCNC(N)=O)C(=O)N[C@@H](CC1CCCCC1)C(=O)N[C@@H](CC1CCCCC1)C(=O)N[C@@H](CC(N)=O)C(=O)N[C@@H](CC(C)C)C(=O)NC(C)(C)C(=O)N[C@H](C(=O)N[C@@H](CCCNC(=N)N)C(=O)N[C@@H](CCC(N)=O)C(=O)N[C@@H](CCCNC(=N)N)C(=O)N[C@@H](CC1CCCCC1)C(N)=O)[C@@H](C)O
In the case of B5, the GBA EC50 Ratio (vs PYY(3-36)), [35S]GTPγS in test [1] stood at 1.7. In addition, the IC50 Ratio (vs PYY(3-36)) in test [2] was found to be 5.5.

B6: Ac-[D-Aze(2)24, Cha27,28,36, Aib31]-PYY(23-36) (peptide)
peptide: Ac-S[dAze]RH[Cha][Cha]NL[Aib]TRQR[Cha]-NH2
SMILES: CC(=O)N[C@@H](CO)C(=O)N1CC[C@@H]1C(=O)N[C@@H](CCCNC(=N)N)C(=O)N[C@@H](Cc1c[nH]cn1)C(=O)N[C@@H](CC1CCCCC1)C(=O)N[C@@H](CC1CCCCC1)C(=O)N[C@@H](CC(N)=O)C(=O)N[C@@H](CC(C)C)C(=O)NC(C)(C)C(=O)N[C@H](C(=O)N[C@@H](CCCNC(=N)N)C(=O)N[C@@H](CCC(N)=O)C(=O)N[C@@H](CCCNC(=N)N)C(=O)N[C@@H](CC1CCCCC1)C(N)=O)[C@@H](C)O
With B6, in test [1], the GBA EC50 Ratio (vs PYY(3-36)), [35S]GTPγS is 1.3. The IC50 Ratio (vs PYY(3-36)) in test [2] is 1.7.

B7: Ac-[GABA24, Cha27,28,36, Aib31]-PYY(23-36) (peptide)
peptide: Ac-S[GABA]RH[Cha][Cha]NL[Aib]TRQR[Cha]-NH2
SMILES: CC(=O)N[C@@H](CO)C(=O)NCCCC(=O)N[C@@H](CCCNC(=N)N)C(=O)N[C@@H](Cc1c[nH]cn1)C(=O)N[C@@H](CC1CCCCC1)C(=O)N[C@@H](CC1CCCCC1)C(=O)N[C@@H](CC(N)=O)C(=O)N[C@@H](CC(C)C)C(=O)NC(C)(C)C(=O)N[C@H](C(=O)N[C@@H](CCCNC(=N)N)C(=O)N[C@@H](CCC(N)=O)C(=O)N[C@@H](CCCNC(=N)N)C(=O)N[C@@H](CC1CCCCC1)C(N)=O)[C@@H](C)O
Turning to B7, the GBA EC50 Ratio (vs PYY(3-36)), [35S]GTPγS in test [1] was determined as 3. Moreover, the IC50 Ratio (vs PYY(3-36)) in test [2] is 5.8.

B8: Ac-[D-Pro24, Cha27,28,36, Lys(Me2)30, Aib31]-PYY(23-36) (peptide)
peptide: Ac-S[dP]RH[Cha][Cha]N[Lys(Me2)][Aib]TRQR[Cha]-NH2
SMILES: CC(=O)N[C@@H](CO)C(=O)N1CCC[C@@H]1C(=O)N[C@@H](CCCNC(=N)N)C(=O)N[C@@H](Cc1c[nH]cn1)C(=O)N[C@@H](CC1CCCCC1)C(=O)N[C@@H](CC1CCCCC1)C(=O)N[C@@H](CC(N)=O)C(=O)N[C@@H](CCCCN(C)C)C(=O)NC(C)(C)C(=O)N[C@H](C(=O)N[C@@H](CCCNC(=N)N)C(=O)N[C@@H](CCC(N)=O)C(=O)N[C@@H](CCCNC(=N)N)C(=O)N[C@@H](CC1CCCCC1)C(N)=O)[C@@H](C)O
As to B8, the GBA EC50 Ratio (vs PYY(3-36)), [35S]GTPγS in test [1] was 0.7. Moreover, in test [2], the IC50 Ratio (vs PYY(3-36)) turned out to be 0.8.

B9: Ac-[αMePro24, Cha27,28,36, Aib31]-PYY(23-36) (peptide)
peptide: Ac-S[αMeP]RH[Cha][Cha]NL[Aib]TRQR[Cha]-NH2
SMILES: CC(=O)N[C@@H](CO)C(=O)N1CCC[C@@]1(C)C(=O)N[C@@H](CCCNC(=N)N)C(=O)N[C@@H](Cc1c[nH]cn1)C(=O)N[C@@H](CC1CCCCC1)C(=O)N[C@@H](CC1CCCCC1)C(=O)N[C@@H](CC(N)=O)C(=O)N[C@@H](CC(C)C)C(=O)NC(C)(C)C(=O)N[C@H](C(=O)N[C@@H](CCCNC(=N)N)C(=O)N[C@@H](CCC(N)=O)C(=O)N[C@@H](CCCNC(=N)N)C(=O)N[C@@H](CC1CCCCC1)C(N)=O)[C@@H](C)O
As to B9, the GBA EC50 Ratio (vs PYY(3-36)), [35S]GTPγS in test [1] amounted to 1.3. For the same molecule, in test [2], the IC50 Ratio (vs PYY(3-36)) was 2.8.

B10: Isobutanoyl-[Glu23, D-Pro24, Pya(4)26, Cha27,36, Leu(Me)28, Lys30, Aib31]-PYY(23-36) (peptide)
peptide: Isobutyryl-E[dP]R[4Pal][Cha][tBuAla]NK[Aib]TRQR[Cha]-NH2
SMILES: CC(C)C(=O)N[C@@H](CCC(=O)O)C(=O)N1CCC[C@@H]1C(=O)N[C@@H](CCCNC(=N)N)C(=O)N[C@@H](Cc1ccncc1)C(=O)N[C@@H](CC1CCCCC1)C(=O)N[C@@H](CC(C)(C)C)C(=O)N[C@@H](CC(N)=O)C(=O)N[C@@H](CCCCN)C(=O)NC(C)(C)C(=O)N[C@H](C(=O)N[C@@H](CCCNC(=N)N)C(=O)N[C@@H](CCC(N)=O)C(=O)N[C@@H](CCCNC(=N)N)C(=O)N[C@@H](CC1CCCCC1)C(N)=O)[C@@H](C)O
In the case of B10, the GBA EC50 Ratio (vs PYY(3-36)), [35S]GTPγS in test [1] is 0.88. Further, the IC50 Ratio (vs PYY(3-36)) in test [2] is 0.43.
